Assay results from patent publication US20080227848.

Tests used:
[1] = target: T1, p19-INK-4d peptide
T1 chain: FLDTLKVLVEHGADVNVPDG

[2] = target: T2, IkBa 21 mer peptide
T2 chain: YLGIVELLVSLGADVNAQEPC

[3] = target: T3, IkappaB-alpha, recombinant protein, P25963
T3 chain: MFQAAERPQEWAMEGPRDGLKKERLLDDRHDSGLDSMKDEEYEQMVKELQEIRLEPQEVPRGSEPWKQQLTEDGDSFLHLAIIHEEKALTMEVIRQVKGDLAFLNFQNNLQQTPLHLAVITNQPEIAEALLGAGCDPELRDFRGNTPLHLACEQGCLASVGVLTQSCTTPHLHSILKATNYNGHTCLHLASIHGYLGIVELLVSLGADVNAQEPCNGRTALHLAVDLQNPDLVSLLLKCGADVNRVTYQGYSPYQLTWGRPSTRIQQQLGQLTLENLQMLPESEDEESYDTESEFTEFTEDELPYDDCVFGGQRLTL

[4] = target: T4, Gankyrin/p28-II peptide
T4 chain: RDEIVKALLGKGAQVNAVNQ

[5] = target: T5, GST p105 ARD; details: scale: % activity relative to GST HIF-1α 786-826
T5 chain: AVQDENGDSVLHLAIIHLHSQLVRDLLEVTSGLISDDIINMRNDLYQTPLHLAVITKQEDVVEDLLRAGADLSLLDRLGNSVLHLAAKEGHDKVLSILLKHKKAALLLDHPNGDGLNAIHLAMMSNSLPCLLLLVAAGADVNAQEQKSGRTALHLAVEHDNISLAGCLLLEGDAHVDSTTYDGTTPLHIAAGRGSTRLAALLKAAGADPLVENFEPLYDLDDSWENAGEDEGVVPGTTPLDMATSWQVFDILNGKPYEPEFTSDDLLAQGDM

[6] = target: T6, Myotrophin peptide
T6 chain: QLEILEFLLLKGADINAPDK

[7] = target: T7, 2-5A-d-R peptide
T7 chain: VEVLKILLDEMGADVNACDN

[8] = target: T8, Tankyrase 1/2 peptide
T8 chain: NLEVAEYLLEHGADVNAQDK

[9] = target: GST p105 ARD N to A mutant; details: scale: % activity relative to GST HIF-1α 786-826
[10] = target: T9, FEM-1 21 mer peptide
T9 chain: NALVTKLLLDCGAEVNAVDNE

[11] = target: T10, GABPbeta peptide
T10 chain: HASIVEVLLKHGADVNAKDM

[12] = target: T11, GST HIF-1α 786-826, Q16665; details: scale: % activity relative to GST HIF-1α 786-826
T11 chain: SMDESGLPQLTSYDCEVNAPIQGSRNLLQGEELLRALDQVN

[13] = target: T12, FGIF peptide
T12 chain: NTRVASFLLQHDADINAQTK

[14] = target: T13, p105 21 mer peptide
T13 chain: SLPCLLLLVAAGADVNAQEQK

[15] = target: p105 ARD L668K mutant
[16] = target: T14, CAD, HIF C-terminal transactivation domain standard peptide
T14 chain: DESGLPQLTSYDCEVNAPI

[17] = target: T15, M110 peptide
T15 chain: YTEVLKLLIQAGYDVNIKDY

[18] = target: T16, p105 ARD (ankyrin repeat domain of p105, amino acid residues 537-809), free form; details: scale: % activity relative to GST HIF-1α 786-826
T16 chain: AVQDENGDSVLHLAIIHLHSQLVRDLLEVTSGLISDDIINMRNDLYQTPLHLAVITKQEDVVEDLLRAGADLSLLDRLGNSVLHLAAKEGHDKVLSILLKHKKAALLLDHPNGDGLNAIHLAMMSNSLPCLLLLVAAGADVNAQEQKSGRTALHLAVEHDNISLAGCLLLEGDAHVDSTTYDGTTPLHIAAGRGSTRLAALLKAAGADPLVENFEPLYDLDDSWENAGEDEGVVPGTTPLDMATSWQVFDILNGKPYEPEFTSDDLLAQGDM

[19] = scale: % activity relative to GST HIF-1α 786-826

B1: factor inhibiting hypoxia-inducible factor (FIH), highly purified recombinant (protein)
chain: MAATAAEAVASGSGEPREEAGALGPAWDESQLRSYSFPTRPIPRLSQSDPRAEELIENEEPVVLTDTNLVYPALKWDLEYLQENIGNGDFSVYSASTHKFLYYDEKKMANFQNFKPRSNREEMKFHEFVEKLQDIQQRGGEERLYLQQTLNDTVGRKIVMDFLGFNWNWINKQQGKRGWGQLTSNLLLIGMEGNVTPAHYDEQQNFFAQIKGYKRCILFPPDQFECLYPYPVHHPCDRQSQVDFDNPDYERFPNFQNVVGYETVVGPGDVLYIPMYWWHHIESLLNGGITITVNFWYKGAPTPKRIEYPLKAHQKVAIMRNIEKMLGEALGNPQEVGPLLNTMIKGRYN
[1]
  Activity + FIH (relative to synthetic HIF1alphaCAD) (relative to synthetic HIF1alphaCAD): 124
  Hydroxylation of peptide observed by LC-MS analysis: Yes
[2]
  direct peptide substrate hydroxylation by LC-MS: both the FEM-1 and IkappaB-alpha peptides were observed to be hydroxylated under standard assay conditions
[2]; [19]
  % activity relative to GST HIF-1α 786-826 (decarboxylation of 2OG): 111
[3]
  MALDI-TOF mass spectrometry of tryptic fragments after incubation with FIH: The results demonstrated hydroxylation of the fragment
[3]; [19]
  % activity relative to GST HIF-1α 786-826 (decarboxylation of 2OG): 144
[4]
  Activity + FIH (relative to synthetic HIF1alphaCAD) (relative to synthetic HIF1alphaCAD): 116
  Hydroxylation of peptide observed by LC-MS analysis: Yes
[5]
  % activity relative to GST HIF-1α 786-826 (decarboxylation of 2OG): 129
[6]
  Activity + FIH (relative to synthetic HIF1alphaCAD) (relative to synthetic HIF1alphaCAD): 154
  Hydroxylation of peptide observed by LC-MS analysis: Yes
[7]
  Activity + FIH (relative to synthetic HIF1alphaCAD) (relative to synthetic HIF1alphaCAD): 27.8
  Hydroxylation of peptide observed by LC-MS analysis: Yes
[8]
  Activity + FIH (relative to synthetic HIF1alphaCAD) (relative to synthetic HIF1alphaCAD): 107
  Hydroxylation of peptide observed by LC-MS analysis: Yes
  site of hydroxylation by LC-MS: LC-MS analyses located the site of hydroxylation to the internal asparagine residue in the case of tankyrase
[9]
  % activity relative to GST HIF-1α 786-826 (decarboxylation of 2OG): 12
[10]
  2D-NMR spectra of the peptide after incubation with FIH: consistent with asparaginyl hydroxylation
  direct peptide substrate hydroxylation by LC-MS: both the FEM-1 and IkappaB-alpha peptides were observed to be hydroxylated under standard assay conditions
[10]; [19]
  % activity relative to GST HIF-1α 786-826 (decarboxylation of 2OG): 89
[11]
  Activity + FIH (relative to synthetic HIF1alphaCAD) (relative to synthetic HIF1alphaCAD): 107
  Hydroxylation of peptide observed by LC-MS analysis: Yes
[12]
  % activity relative to GST HIF-1α 786-826 (decarboxylation of 2OG): 100
[13]
  Activity + FIH (relative to synthetic HIF1alphaCAD) (relative to synthetic HIF1alphaCAD): 168
  Hydroxylation of peptide observed by LC-MS analysis: Yes
[14]
  2D-NMR spectra of the peptide after incubation with FIH: consistent with asparaginyl hydroxylation
[14]; [19]
  % activity relative to GST HIF-1α 786-826 (decarboxylation of 2OG): 100
[15]
  MALDI ToF mass spectrometry of the tryptic digest after incubation with FIH: following incubation with FIH, a peak at 1,542 Da appears in the spectrum that corresponds to the hydroxylated 1,526 Da peptide i.e. +16 Da
[16]
  Activity + FIH (relative to synthetic HIF1alphaCAD) (relative to synthetic HIF1alphaCAD): 100
  Hydroxylation of peptide observed by LC-MS analysis: Yes
[16]; [19]
  % activity relative to GST HIF-1α 786-826 (decarboxylation of 2OG): 75
[17]
  Activity + FIH (relative to synthetic HIF1alphaCAD) (relative to synthetic HIF1alphaCAD): 122
  Hydroxylation of peptide observed by LC-MS analysis: Yes
[18]
  % activity relative to GST HIF-1α 786-826 (decarboxylation of 2OG): 164
